Measured values taken from patent US20210355185A1 (Xencor, published 2021).

What was measured:
human PD-1-His = biological target: T1, human PD-1-His (human, UniProt Q15116 25-167, limits assumed); test: Octet BLI; antibody captured on anti-human Fc (AHC) biosensors, dipped into PD-1-His
T1 construct: not shown: His tag

PD-1-His = biological target: T2, PD-1-His (UniProt Q15116 25-167, limits assumed); test: Octet affinity screen; bivalent IgG1 format
T2 construct: Captured on HIS1K biosensors; not shown: His tag
Source text: We engineered affinity optimized variants of mAb C. A library of variants was constructed by standard mutagenesis to introduce point mutations into the variable heavy or variable light regions of XENP28536. Illustrative sequences are depicted in FIG. 70A-FIG. 70I (variable domain sequences).

T2 sequence (Q15116 25-167 limits assumed): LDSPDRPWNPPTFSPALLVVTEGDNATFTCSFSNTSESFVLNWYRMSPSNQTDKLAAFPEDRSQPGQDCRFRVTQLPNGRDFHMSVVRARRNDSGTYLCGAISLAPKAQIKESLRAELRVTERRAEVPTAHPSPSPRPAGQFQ
T1 sequence (Q15116 25-167 limits assumed): as above

Row | Binder | binding result (human PD-1-His) | fold improved affinity over WT (mAb C[PD-1]_H1L1) (PD-1-His)
1 | XENP28536 (antibody, human IgG1, kappa, V domains shown, Format is bivalent human IgG1 with E233P/L234V/L235A/G236del/S267K; also called mAb C; mAb C[PD-1]_H1L1) VH: EVQLVESGGGLVQPGGSLRLSCAASGFTFSSFGMHWVRQAPGKGLEWVSYISSGSSIIYYADSVKGRFTISRDNAKNSLYLQMNSLRAEDTAVYYCARGGRLVWSPDYWGQGTLVTVSS VL: DIVMTQSPDSLAVSLGERATINCKSSQSLLNSGNQKNYLTWYQQKPGQPPKLLIYWASTRESGVPDRFTGSGSGTDFTLTISSLQAEDVAVYYCQNDYSYPFTFGSGTKLEIKR | binds | 
2 | mAb C[PD-1]_H1_L1.1 (antibody, IgG1, V domains shown) VH: EVQLVESGGGLVQPGGSLRLSCAASGFTFSSFGMHWVRQAPGKGLEWVSYISSGSSIIYYADSVKGRFTISRDNAKNSLYLQMNSLRAEDTAVYYCARGGRLVWSPDYWGQGTLVTVSS VL: DIVMTQSPDSLAVSLGERATINCKSSQSLLHSGNQKNYLTWYQQKPGQPPKLLIYWASTRESGVPDRFTGSGSGTDFTLTISSLQAEDVAVYYCQNDYSYPFTFGSGTKLEIK |  | > 2 fold
3 | mab_C[PD-1]_H1_L1.3 (antibody, IgG1, V domains shown) VH: EVQLVESGGGLVQPGGSLRLSCAASGFTFSSFGMHWVRQAPGKGLEWVSYISSGSSIIYYADSVKGRFTISRDNAKNSLYLQMNSLRAEDTAVYYCARGGRLVWSPDYWGQGTLVTVSS VL: DIVMTQSPDSLAVSLGERATINCKSSQSLLSSGNQKNYLTWYQQKPGQPPKLLIYWASTRESGVPDRFTGSGSGTDFTLTISSLQAEDVAVYYCQNDYSYPFTFGSGTKLEIK |  | > 2 fold
